Laboratory results from the supplement of paper PMC10567573.

B1: SPATS1 (parent)
chain: YPEQSKGFHKAGSMLPPVNFSIVP

Variants of: B1
Assay: protein stability index of a GFP-peptide fusion (GPS, HEK-293T) (PSI 1-6); higher = more stable
Conditions: c terminus: a fixed tail appended
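Further: lentivirally expressed fusions sorted by FACS into six bins by GFP to DsRed ratio, PSI derived from sequencing read proportions per bin multiplied by bin number.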

Protein stability index of substitutions, site by site:
G12: T 2.04, P 2, W 2.08, H 1.94, D 2.08, A 1.76, K 1.98
K6: D 2.29, C 2.38, T 1.92, N 1.91
G7: Q 1.73, N 2.09, S 1.9, R 2.92, I 2.34
Q4: H 2.29, E 3.03, W 3.72, T 1.8, S 1.99
P16: E 1.95, M 1.52, A 1.95, V 2.16, L 1.76
S13: I 1.74, K 1.95, N 2.13, R 2.15
N19: E 1.91, T 1.75, S 2.43, A 2.17, H 1.91, Q 1.87, L 2.24
E3: M 2.14, R 1.64, H 1.81, N 2.39, G 1.82, T 2.02, Q 2.5, C 2.35, F 2.11, W 2.01, Y 2.03
S21: G 1.81, R 1.8, V 2.24, C 1.79, I 2.13, F 1.6, E 1.94
P24: I 3.47, W 3.28, N 1.84, E 2.74, L 3.85, D 2.43, M 2.5
P2: D 3.19, M 2.48, V 2.62, C 1.62
A11: L 1.55, M 1.84, I 2.7, H 2.21, E 2.78
V23: S 1.97, A 2.57, C 1.8, W 1.87, R 1.9, E 2.42, G 1.98, D 1.88
F8: T 3.18, M 2.43, A 3.6, G 3.58, H 3.07, R 3.17, D 4.19, I 3.44, W 3.05, V 2.86
I22: V 1.82, K 1.65, F 1.97, W 1.24, R 2.52, T 2.53, G 2.52, P 2.01
V18: D 2.26, Y 1.91, H 1.95, F 1.73, C 2.2, P 2.19, I 1.84, K 2.06, L 1.28, E 1.81
M14: I 1.83, L 1.74, P 2.07, E 1.88
L15: M 1.8, C 2.05, Q 2.47, F 1.84, A 1.63, S 2.04, P 2.42, G 1.58
Y1: K 3.38, F 2.03, E 3.8, V 3.31, T 3.22, R 3.04, N 3.52, D 3.82, S 3.36
H9: Q 2.51, C 1.82, V 2.13, P 2.19, F 4.31, D 2.94, N 2.75, M 2.14, S 2.4
S5: Q 2.55, F 2.3, V 2.45, T 2.23, M 2.37, Y 2.1, H 2.1
K10: H 1.44, E 2.58, T 2.08, R 2.47
P17: A 2.63, N 1.9, Y 1.8, L 1.62, E 1.85, G 1.83, V 2.22, I 1.75, D 1.94, C 1.41
F20: N 2.22, C 2.13, T 2.24, W 1.57, D 2.39, P 2.66, S 2.14, V 2.88, G 1.71
